Data set [1] deals with the molecule itself. The data set is described as follows: seeded fibril growth assay (ThT fluorescence, negative-stain EM, pelleting); sonicated fibril seeds (0.5 uM) with monomers (5 uM), with or without HSPA8 (5 uM); 30 C by the methods, 37 C for 2 h by the legend of Fig. 3c; fibrils pelleted at 12,000 g.
Data set [2] has as its target T1, recombinant hHSPA8-CT (C-terminal fragment 385-647, SBD; 6xHis-Sumo) (human, UniProt P11142 385-646).
T1 construct: human HSPA8 C-terminal fragment, residues 385-647 as printed; also called HSPA8-SBD; HSPA8 SBD domain; source: E. coli BL21 (DE3), purified (Ni-NTA, Superdex 200)
The data set is described as follows: negative staining immunogold EM; RIP3 fibrils with HSPA8-SBD on grids; anti-HSPA8 antibody 1:100, anti-rabbit gold-conjugated antibody. Conditions: both partners purified.

Data set [3] addresses T2, GST-tagged HSPA8-SBD domain (GST-HSPA8-SBD 385-647) ( (human or mouse cDNA cloned), UniProt P11142 385-646).
T2 construct: The plasmid methods name only 6xHis-Sumo constructs for E. coli; the GST construct is not described there; source: E. coli, purified
Nature of the data set: pull-down; His pull-down on Ni-NTA; His-Sumo-RIP3(388-518)-4A as bait, GST-HSPA8-SBD as prey; mixed 1:1 (50 uM each) for 6 h at 4 C. Conditions: both partners purified.

The values that follow come from PMC10624691, “HSPA8 acts as an amyloidase to suppress necroptosis by inhibiting and reversing functional amyloid formation” (Cell Research, 2023).

Residue numbers refer to the chain shown, from its start.

T1 sequence (P11142 385-646): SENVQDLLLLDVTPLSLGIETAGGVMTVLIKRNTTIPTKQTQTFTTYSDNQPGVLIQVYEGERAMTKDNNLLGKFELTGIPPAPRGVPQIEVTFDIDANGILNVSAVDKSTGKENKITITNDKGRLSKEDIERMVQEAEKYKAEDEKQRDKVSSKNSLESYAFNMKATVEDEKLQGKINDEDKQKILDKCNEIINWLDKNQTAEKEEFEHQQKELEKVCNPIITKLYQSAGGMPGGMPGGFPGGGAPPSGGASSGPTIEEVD
T2 sequence (P11142 385-646): as above

B1: TRIF(677-698) (peptide, UniProt Q8IUC6 677-698, looked up)
peptide: QPLIIHHAQMVQLGLNNHMWNQ
notes: TRIF residues 677-698; source: custom-made by WuXi AppTec
B1: the binding result in data set [1] is on record as “binds”.

B2: RIP1(497-582) (domain or fragment, human, UniProt Q13546 497-582, looked up)
chain: MPSLHNIPVPETNYLGNTPTMPFSSLPPTDESIKYTIYNSTGIQIGAYNYMEIGGTSSSLLDSTNTNFKEEPAAKYQAIFDNTTSL
notes: the reagents paragraph prints 498-582; two first limits printed (497 and 498); also called RIP1_((498-582)); source: recombinant, generated previously
As to B2, the binding result in data set [1] was “binds”.

B3: hRIP3(388-518) tagged with 6xHis-Sumo (RIP3 fibrils of Fig. 4) (domain or fragment, human, UniProt Q9Y572 388-518, looked up)
chain: SSDSMAQPPQTPETSTFRNQMPSPTSTGTPSPGPRGNQGAERQGMNWSCRTPEPNPVTGRPLVNIYNCSGVQVGDNNYLTMQQTTALPTWGLAPSGKGRGLQHPPPVGSQEGPKDPEAWSRPQGWYNHSGK
notes: human RIP3 residues 388-518; also called RIP3 amyloids; source: E. coli BL21 (DE3), purified (Ni-NTA, Superdex 200)
Consider B3, for which the binding result in data set [2] is “binds”.

B4: His-Sumo-RIP3(388-518)-4A (domain or fragment, human, UniProt Q9Y572 388-518, looked up)
chain: B3 chain with V71A, Q72A, V73A, G74A
notes: human RIP3 residues 388-518 with the RHIM core VQVG replaced by AAAA; also called His-tagged RIP3-RHIM-4A; His-tagged RHIM-4A-containing RIP3 (388-518 aa); source: E. coli, purified
Regarding B4, in data set [3], the binding result is on record as “binds”.
